According to PMC4455283, “Crystal structure of TRIM20 C-terminal coiled-coil/B30.2 fragment: implications for the recognition of higher order oligomers” (Scientific Reports, 2015):

How the values were obtained:
pro-interleukin-1β = target: T1, pro-interleukin-1β (UniProt P01584 1-269); assay: SPR; TRIM20Δ413 and pro-IL-1β; heterogeneous ligand model; apparent dissociation constants; immobilised partner not told in the text shown; conditions: both partners purified
T1 construct: pro-interleukin-1β (uncleaved precursor of IL-1β); Printed mass 31.9 kDa; The FLAG tag is named for the co-immunoprecipitation; also called pro-IL-1β; FLAG-tagged pro-IL-1β; source: purified

[1] = target: the molecule itself; assay: AUC; sedimentation velocity analytical ultracentrifugation at 4 °C

apparent KD, heterogeneous ligand model, first constant (pro-interleukin-1β): 0.7 µM
apparent KD, heterogeneous ligand model, second constant (pro-interleukin-1β): 13.7 µM
B1: TRIM20Δ413 (TRIM20 coiled-coil/B30.2 fragment) (domain or fragment, human, UniProt O15553 414-781, looked up)
chain: EVALEHKKKIQKQLEHLKKLRKSGEEQRSYGEEKAVSFLKQTEALKQRVQRKLEQVYYFLEQQEHFFVASLEDVGQMVGQIRKAYDTRVSQDIALLDALIGELEAKECQSEWELLQDIGDILHRAKTVPVPEKWTTPQEIKQKIQLLHQKSEFVEKSTKYFSETLRSEMEMFNVPELIGAQAHAVNVILDAETAYPNLIFSDDLKSVRLGNKWERLPDGPQRFDSCIIVLGSPSFLSGRRYWEVEVGDKTAWILGACKTSISRKGNMTLSPENGYWVVIMMKENEYQASSVPPTRLLIKEPPKRVGIFVDYRVGSISFYNVTARSHIYTFASCSFSGPLQPIFSPGTRDGGKNTAPLTICPVGGQGPD
notes: TRIM20 (pyrin, marenostrin), human, UniProt O15553; construct starting with E414, comprising the CHS (coiled-coil, E414-N586) and B30.2 (E589-G776) domains; Calculated monomer mass printed as 42 737 Da (85.7 kDa dimer); also called CHS-B30.2; TRIM20 C-terminal coiled-coil/B30.2 fragment; source: purified
stoichiometry N [1]: 2
